T1: human CNTN4-rabbit Fc (human; rabbit, UniProt Q8IWV2 19-1000, limits assumed)
T1 construct: not shown: rabbit Fc
T1 sequence (looked up): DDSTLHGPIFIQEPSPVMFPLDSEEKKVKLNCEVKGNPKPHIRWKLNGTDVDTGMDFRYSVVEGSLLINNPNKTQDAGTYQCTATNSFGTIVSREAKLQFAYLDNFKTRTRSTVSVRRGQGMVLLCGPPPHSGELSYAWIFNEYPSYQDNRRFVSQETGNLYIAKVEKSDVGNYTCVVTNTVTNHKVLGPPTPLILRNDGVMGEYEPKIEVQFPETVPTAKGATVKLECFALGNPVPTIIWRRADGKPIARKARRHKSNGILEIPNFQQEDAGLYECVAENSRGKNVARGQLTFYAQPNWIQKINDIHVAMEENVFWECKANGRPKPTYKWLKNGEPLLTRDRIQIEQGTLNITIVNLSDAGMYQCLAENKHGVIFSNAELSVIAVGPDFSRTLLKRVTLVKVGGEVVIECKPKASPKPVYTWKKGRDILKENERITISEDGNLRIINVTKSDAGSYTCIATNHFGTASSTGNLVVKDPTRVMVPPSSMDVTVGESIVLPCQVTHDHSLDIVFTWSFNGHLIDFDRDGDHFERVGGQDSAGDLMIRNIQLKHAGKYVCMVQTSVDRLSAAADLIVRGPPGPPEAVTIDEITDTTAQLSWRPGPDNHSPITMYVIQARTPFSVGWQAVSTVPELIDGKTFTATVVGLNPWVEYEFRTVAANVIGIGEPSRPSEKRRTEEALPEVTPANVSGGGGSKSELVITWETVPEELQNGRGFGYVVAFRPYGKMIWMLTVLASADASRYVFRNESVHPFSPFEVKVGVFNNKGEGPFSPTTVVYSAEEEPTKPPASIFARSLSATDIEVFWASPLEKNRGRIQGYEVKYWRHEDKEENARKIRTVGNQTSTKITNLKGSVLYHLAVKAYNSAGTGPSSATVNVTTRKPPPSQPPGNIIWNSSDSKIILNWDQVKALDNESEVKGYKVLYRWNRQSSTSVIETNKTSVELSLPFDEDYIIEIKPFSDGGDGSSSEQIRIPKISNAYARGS

T2: mouse CNTN4-rabbit Fc (mouse; rabbit, UniProt Q69Z26 19-1000, limits assumed)
T2 construct: not shown: rabbit Fc
T2 sequence (looked up): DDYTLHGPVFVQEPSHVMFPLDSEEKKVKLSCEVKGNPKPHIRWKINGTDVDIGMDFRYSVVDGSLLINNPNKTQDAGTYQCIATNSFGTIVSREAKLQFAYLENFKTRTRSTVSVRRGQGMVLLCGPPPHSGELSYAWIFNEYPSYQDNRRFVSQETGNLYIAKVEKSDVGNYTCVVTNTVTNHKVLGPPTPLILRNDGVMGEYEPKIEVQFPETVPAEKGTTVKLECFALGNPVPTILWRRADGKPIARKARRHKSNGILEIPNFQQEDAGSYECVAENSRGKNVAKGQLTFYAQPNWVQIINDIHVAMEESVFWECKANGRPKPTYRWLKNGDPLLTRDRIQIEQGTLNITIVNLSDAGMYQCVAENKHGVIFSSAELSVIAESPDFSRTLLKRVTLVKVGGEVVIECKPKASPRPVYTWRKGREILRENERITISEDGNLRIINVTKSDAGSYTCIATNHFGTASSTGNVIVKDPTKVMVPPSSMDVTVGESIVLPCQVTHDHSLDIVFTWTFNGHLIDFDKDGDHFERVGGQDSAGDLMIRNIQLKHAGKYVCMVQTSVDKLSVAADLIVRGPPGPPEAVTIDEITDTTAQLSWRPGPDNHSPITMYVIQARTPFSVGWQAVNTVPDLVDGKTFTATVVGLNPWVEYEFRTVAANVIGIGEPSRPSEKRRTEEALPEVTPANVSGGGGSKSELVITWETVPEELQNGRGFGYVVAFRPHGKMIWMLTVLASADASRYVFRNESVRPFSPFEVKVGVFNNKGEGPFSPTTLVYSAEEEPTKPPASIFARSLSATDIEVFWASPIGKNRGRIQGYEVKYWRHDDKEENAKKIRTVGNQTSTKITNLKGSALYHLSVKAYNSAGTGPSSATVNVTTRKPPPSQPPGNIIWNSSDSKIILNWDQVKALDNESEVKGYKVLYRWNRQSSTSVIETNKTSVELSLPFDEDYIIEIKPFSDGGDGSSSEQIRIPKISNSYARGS

T3: human CNTN4 antigen expressed on the cell membrane of 293FT cells (human, UniProt Q8IWV2 19-1000)
T3 construct: whole, on cells; also called Human CNTN4 transfected cell
T3 sequence (looked up): T1 sequence (looked up)

B1: anti-CNTN4 IgG A13WB2 (antibody, V domains shown)
VH: AVTLDESGGGLHTPGGALSLVCKASGFTFSSYGMAWVRQAPGKGLEWVAGITSSGSSAGYGPAVKGRATISRDNGQSTVRLQLNNLRAEDTATYYCAKDGYIYSGADSDSIDAWGHGTEVIVSS
VL: ALTQPSSVSANLGGTVEITCSGGYSGYGWYQQKSPGSAPVTLIYYNDKRPSDIPSRFSGSKSGSTGTLTITGVQAEDEAVYFCGSRDSSTYVDIFGAGTTLTVL
notes: human IgG4 (S228P)
B2: anti-CNTN4 IgG A35SF8 (antibody, V domains shown)
VH: B1 VH
VL: ALTQPSSVSANLGGTVKITCSGGGGSYGWFQQKSPGSAPVTLIYNNNNRPSDIPSRFSGSKSGSTATLTITGVQAEDEAVYFCGGYDDSTYVGMFGAGTTLTVL
notes: human IgG4 (S228P)
B3: anti-CNTN4 IgG A13WB7 (antibody, V domains shown)
VH: B1 VH
VL: ALTQPSSVSANPGETVKITCSGGGSSSYYNYGWYQQKSPGSAPVTVIYYNDKRPSDIPSRFSGSKSGSTGTLTITGVQAEDEAVYYCGSWDSSTYSDIFGAGTTLTVL
notes: human IgG4 (S228P)
B4: anti-CNTN4 IgG A13WB4 (antibody, V domains shown)
VH: B1 VH
VL: ALTQPSSVSANPGETVEITCSGGSSDYGYGWYQQKSPGSAPVTVIYYNNNRPSDIPSRFSGSLSGSTNTLTITGVQADDEAVYFCGSRDSSSGYVDIFGAGTTLTVL
notes: human IgG4 (S228P)
B5: anti-CNTN4 IgG A13WB24 (antibody, V domains shown)
VH: B1 VH
VL: ALTQPSSVSANPGGTVEITCSGGGNNNYGWYQQKSPGSAPVTLIYYNDNRPSDIPSRFSGSKSGSTATLTITGVQAEDEAVYYCGGYDISYVDIFGAGTTLTVL
notes: human IgG4 (S228P)
B6: anti-CNTN4 IgG A13SF1 (antibody, V domains shown)
VH: B1 VH with H12Q, A17G
VL: B2 VL with D88S, M94T
notes: human IgG4 (S228P)
B7: anti-CNTN4 IgG A13WB25 (antibody, V domains shown)
VH: B1 VH
VL: B1 VL with Y24G, S25G, G26S, L42V, S85G, R86Y, S88G, V92A, D93G
notes: human IgG4 (S228P)
B8: anti-CNTN4 IgG A13SF16 (antibody, V domains shown)
VH: B1 VH with H12Q, A17G
VL: B2 VL with G23S, N47D, D88S, G93D, M94T
notes: human IgG4 (S228P)
B9: anti-CNTN4 IgG A13SF21 (antibody, V domains shown)
VH: B1 VH
VL: ALTQPSSVSANLGGTVEITCSGSSGSYGWYQQKAPGSAPVTVIYNNNNRPSGIPSRFSGALSGSTATLTITGVQAEDEAVYFCGGYDSSTYVGIFGAGTTLTVL
notes: human IgG4 (S228P)
B10: anti-CNTN4 IgG A35SF14 (antibody, V domains shown)
VH: B1 VH
VL: B2 VL with L12P, G14E, V16I, F30Y, L42V, N46G, D88S, S89G, V92S, M94I
notes: human IgG4 (S228P)

Where a chain is given by its changes, count along the chain named. In names and notes the source's numbering stands.

In general, EC50 refers to the concentration that produces a half-maximal response. Read a high EC50 as lower potency in that assay.

For one test, the target named is T1, human CNTN4-rabbit Fc. Description: ELISA, plate coated with antigen-rabbit Fc, anti-human IgG Fc-HRP. On the procedure: (§1) An ELISA tests were performed on a total of 25 scFv-hCks and a total of 27 IgGs for which the expression was confirmed in Example 1.2. An ELISA plate was coated with 200 ng of antigens (human CNTN4-rabbit Fc or mouse CNTN4-rabbit Fc). 200 ng of a negative control (human antigen-rabbit Fc) for a tagging protein was used. For antibody binding, anti-CNTN4 scFv-hCk was serially diluted from a maximum of 1 μM to 0.001 nM by 1/10×each, and anti-CNTN4 IgG was serially diluted from a maximum of 10 nM to 0.00001 nM by 1/10×each, thereby binding to the antigen. Anti-human kappa-HRP or anti-human IgG Fc-HRP was used as the secondary antibody for antibody detection. Color was developed using ABTS, which is a color developing reagent, and the absorbance at 405 nm was measured.
On the technique in general: ELISA stands for enzyme-linked immunosorbent assay.
As for B1, the EC50 worked out at 10 pM.
Still for that read-out and setting: then B2, with 10 pM.
For the molecule B3, the EC50 is 10 pM.
On the same count and under the same terms, then B4, with 10 pM; and B5, with 10 pM.
In the case of B6, the EC50 stood at 10 pM.
Regarding B7, a half-maximal effect (EC50) was put at 10 pM.
Same read-out and setting: then B8, with 10 pM; and B9, with 10 pM; and B10, with 10 pM.

A further test deals with T2, mouse CNTN4-rabbit Fc. The description is as above. On the procedure: as §1
In the case of B1, the EC50 worked out at 10 pM.
With B2, the EC50 came out at 20 pM.
Still for that read-out and setting: then B3, with 10 pM.
B4 had an EC50 of 10 pM.
The same measure, in the same setting: then B5, with 10 pM; and B6, with 20 pM.
Still for that read-out and setting: then B7, with 10 pM; and B8, with 10 pM; and B9, with 10 pM.
On the same count and under the same terms, then B10, with 10 pM.

Another test concerns the target T3, human CNTN4 antigen expressed on the …. The experiment in a line: FACS, 293FT cells transfected with human CNTN4, 40 ug/mL, anti-hFc-PE. (In general: In flow cytometry, cells or beads pass a laser one at a time.)
B1: the Shift % worked out at 86.6%.
Same read-out and setting: then B2, with 80.4%.
The same measure, in the same setting: under B3 stands 86.4%; under B4, 84.7%; under B5, 85.1%.
On the same count and under the same terms, under B6 stands 83.8%; under B7, 82.4%; under B8, 84.8%.
Regarding B9, the Shift % came out at 80.4%.
Same read-out and setting: under B10 stands 81.6%.

Source of the values: patent publication US20240182563A1 (GENOME, published 2024).
